Legend:
[1] = molecular target: Angiotensin-converting enzyme-I (ACE-1)
[2] = molecular target: SOP2 gelatine extracted from blue whiting skin and bone
[3] = molecular target: SOP1 gelatine extracted from blue whiting skin and bone
[4] = molecular target: Angiotensin-converting enzyme-I (ACE-1); remark: listed apart in the source
[5] = molecular target: Renin

Substance	% ACE-1 inhibition at 1 mg/ml [1] [%]	% ACE-I inhibition at 1 mg/mL [4] [%]	other results
≤3 KDa peptide fraction of the SOP1 gelatine alcalase hydrolysate (pool or library)	84.2		
Alcalase (EC number 3.4.21.62) (from UniProt P00780) (enzyme)			degree of hydrolysis (DH) after 4 h, pH-stat method [2]: 2.54%; degree of hydrolysis (DH) after 4 h, pH-stat method [3]: 1.87%
Papain (EC number 3.4.22.2) (from UniProt P00784) (enzyme)			degree of hydrolysis (DH) after 4 h, pH-stat method [2]: 19.4%; degree of hydrolysis (DH) after 4 h, pH-stat method [3]: 20.4%
Mackerel retentate (blood water fraction) (pool or library)		95.4	
≤3 KDa peptide fraction of the SOP2 gelatine papain hydrolysate (pool or library)	84.5		
Blue whiting 3 KDa permeate (blood water fraction) (pool or library)		28.9	% Renin inhibition at 1 mg/mL [5]: 10.6%
≤3 KDa peptide fraction of the SOP2 gelatine alcalase hydrolysate (pool or library)	87.1		
SOP2 gelatine alcalase hydrolysate (blue whiting skin and bone) (pool or library)	25.1		
Blue whiting retentate (blood water fraction) (pool or library)		59.4	
≤3 KDa peptide fraction of the SOP1 gelatine papain hydrolysate (pool or library)	80.5		
Mackerel 10 KDa permeate (blood water fraction) (pool or library)		96.9	
SOP1 gelatine papain hydrolysate (blue whiting skin and bone) (pool or library)	73.1		
SOP1 gelatine alcalase hydrolysate (blue whiting skin and bone) (pool or library)	26.8		
Blue whiting 10 KDa permeate (blood water fraction) (pool or library)		33.1	
Mackerel 3 KDa permeate (blood water fraction) (pool or library)		83.9	% Renin inhibition at 1 mg/mL [5]: 21%
SOP2 gelatine papain hydrolysate (blue whiting skin and bone) (pool or library)	71.1		

— patent US20230389573A1
